Results on one substance are retold here after US20050238665A1.

The target in the test is Crotalus durissus terrificus venom. Nature of the test: ELISA on C.d.t. venom (5 µg/ml coat). In general terms: An ELISA detects its analyte on a solid surface through an enzyme-linked reagent.

The substance “preimmune IgY (chicken egg yolk) (antibody)” had an absorbance at dilution 1:5 below 0 absorbance, an absorbance at dilution 1:25 of 0 absorbance, an absorbance at dilution 1:125 of 0.003 absorbance and an absorbance at dilution 1:625 of 0 absorbance. The substance also gave an absorbance at dilution 1:3125 of 0.002 absorbance and an absorbance, undiluted of 0.003 absorbance.
